Laboratory results: patent CN117003876A (KAIKA BIO TECH SHANGHAI CO LTD, dated 2023)

B2: CXCR4膜蛋白 on Hela细胞 (receptor, UniProt P61073 1-352, looked up)
chain: MEGISIYTSDNYTEEMGSGDYDSMKEPCFREENANFNKIFLPTIYSIIFLTGIVGNGLVILVMGYQKKLRSMTDKYRLHLSVADLLFVITLPFWAVDAVANWYFGNFLCKAVHVIYTVNLYSSVLILAFISLDRYLAIVHATNSQRPRKLLAEKVVYVGVWIPALLLTIPDFIFANVSEADDRYICDRFYPNDLWVVVFQFQHIMVGLILPGIVILSCYCIIISKLSHSKGHQKRKALKTTVILILAFFACWLPYYIGISIDSFILLEIIKQGCEFENTVHKWISITEALAFFHCCLNPILYAFLGAKFKTSAQHALTSVSRGSSLKILSKGKRGGHSSVSTESESSSFHSS
notes: whole, on cells; also called Hela细胞过表达CXCR4膜蛋白; Hela细胞膜蛋白CXCR4

Columns and labels:
CXCR4膜蛋白 on Hela细胞 = molecular target: B2; assay: FACS on Hela cells, recombinant antibody
[1] = molecular target: T1, 生物素标记SDF-1a配体(SKU# RBP48061, Reprokine) (UniProt P48061-2 22-89, biotin-labelled (site not stated)); assay: FACS on Hela cells, 0.1uM biotin-SDF-1a, SA-FITC
T1 construct: Bought biotinylated ligand; also called SDF-1α; CXCL12

B1: 1B5B10 (antibody, mouse IgG2b, kappa, V domains shown)
VH: DVQLQESGPGLVKPSQSLSLTCTVTGYSITSDYAWNWIRQFPGNKLEWMGYIDNSGSTNYNPSLRSRISITRDTSKNQFFLQLNSVTTEDTATYYCALNDYHYVMDYWGQGTSVTVSS
VL: DIQMTQSPASLSASVGETVTITCRPSENIYSYLAWYQQKQGKSPQLLVYSAKTLAEGVPLRFSGSYSGTHFSLRINSLQPEDFGSYYCQHHYGSPLTFGSGTKLELKR
notes: also called 1B5B10重组抗体; 鼠单抗1B5B10
B1: binds (CXCR4膜蛋白 on Hela细胞).

B2: binds [1].
